Consider five molecules from patent US20210130436A1 (published 2021).

The target in test [1] is T1, TIGIT (Homo sapiens (Human), UniProt Q495A1 23-244).
T1 construct: Expressed on transfected Expi293 cells; also called TIGIT tfxn
T1 sequence: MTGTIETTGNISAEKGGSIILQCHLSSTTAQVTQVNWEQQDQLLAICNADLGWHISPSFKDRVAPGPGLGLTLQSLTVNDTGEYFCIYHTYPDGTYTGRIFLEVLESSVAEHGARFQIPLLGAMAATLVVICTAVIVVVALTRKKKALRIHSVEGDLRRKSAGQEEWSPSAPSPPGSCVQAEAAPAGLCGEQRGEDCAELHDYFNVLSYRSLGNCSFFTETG
Put plainly: flow cytometry, TIGIT-transfected Expi293 cells.

Test [2] addresses T2, CD226 (Homo sapiens (Human), UniProt Q15762 19-336).
T2 construct: Expressed on transfected cells
T2 sequence: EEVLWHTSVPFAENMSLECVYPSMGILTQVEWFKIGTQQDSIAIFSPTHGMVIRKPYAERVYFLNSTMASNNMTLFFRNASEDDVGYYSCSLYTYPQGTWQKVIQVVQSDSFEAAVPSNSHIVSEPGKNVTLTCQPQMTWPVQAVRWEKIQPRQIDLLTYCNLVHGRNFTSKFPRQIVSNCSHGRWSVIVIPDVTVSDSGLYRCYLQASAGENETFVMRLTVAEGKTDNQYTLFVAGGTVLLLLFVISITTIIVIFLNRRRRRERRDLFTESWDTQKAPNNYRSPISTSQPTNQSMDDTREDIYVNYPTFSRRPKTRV
The experiment in a line: flow cytometry, CD226-transfected Expi293 cells.

Test [3] concerns the target T3, CD96 (UniProt P40200 22-585, limits assumed).
T3 construct: whole, on cells
T3 sequence (looked up): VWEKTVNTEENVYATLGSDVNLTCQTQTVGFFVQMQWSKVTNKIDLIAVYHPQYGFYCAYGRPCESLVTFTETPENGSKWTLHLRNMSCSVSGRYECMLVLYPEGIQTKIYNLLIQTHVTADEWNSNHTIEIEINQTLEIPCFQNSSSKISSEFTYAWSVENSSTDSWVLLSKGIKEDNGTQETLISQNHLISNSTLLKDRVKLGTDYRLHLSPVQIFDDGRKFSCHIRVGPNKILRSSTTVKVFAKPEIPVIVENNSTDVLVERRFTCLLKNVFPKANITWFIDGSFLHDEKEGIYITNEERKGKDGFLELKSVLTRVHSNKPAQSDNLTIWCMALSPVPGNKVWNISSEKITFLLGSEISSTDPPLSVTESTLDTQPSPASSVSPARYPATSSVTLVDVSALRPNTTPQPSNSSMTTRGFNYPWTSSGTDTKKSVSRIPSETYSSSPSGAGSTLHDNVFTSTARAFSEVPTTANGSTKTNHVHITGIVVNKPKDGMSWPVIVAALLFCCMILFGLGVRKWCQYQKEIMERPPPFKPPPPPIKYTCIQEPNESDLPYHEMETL
Put plainly: flow cytometry on cells expressing CD96.

Test [4] deals with T4, TIGIT (Homo sapiens (Human), UniProt Q495A1 23-244).
T4 construct: also called TIGIT tfxn
T4 sequence: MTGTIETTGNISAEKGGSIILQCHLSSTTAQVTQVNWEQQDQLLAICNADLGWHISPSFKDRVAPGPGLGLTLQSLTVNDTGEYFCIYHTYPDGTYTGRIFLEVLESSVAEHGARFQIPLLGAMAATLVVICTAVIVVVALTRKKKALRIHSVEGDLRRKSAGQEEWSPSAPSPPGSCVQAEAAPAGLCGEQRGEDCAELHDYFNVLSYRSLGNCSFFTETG
The experiment in a line: flow cytometry on TIGIT-transfected Expi293 cells.

Test [5] deals with T5, CD96 (UniProt P40200 22-585, limits assumed).
T5 construct: whole, on cells
T5 sequence (looked up): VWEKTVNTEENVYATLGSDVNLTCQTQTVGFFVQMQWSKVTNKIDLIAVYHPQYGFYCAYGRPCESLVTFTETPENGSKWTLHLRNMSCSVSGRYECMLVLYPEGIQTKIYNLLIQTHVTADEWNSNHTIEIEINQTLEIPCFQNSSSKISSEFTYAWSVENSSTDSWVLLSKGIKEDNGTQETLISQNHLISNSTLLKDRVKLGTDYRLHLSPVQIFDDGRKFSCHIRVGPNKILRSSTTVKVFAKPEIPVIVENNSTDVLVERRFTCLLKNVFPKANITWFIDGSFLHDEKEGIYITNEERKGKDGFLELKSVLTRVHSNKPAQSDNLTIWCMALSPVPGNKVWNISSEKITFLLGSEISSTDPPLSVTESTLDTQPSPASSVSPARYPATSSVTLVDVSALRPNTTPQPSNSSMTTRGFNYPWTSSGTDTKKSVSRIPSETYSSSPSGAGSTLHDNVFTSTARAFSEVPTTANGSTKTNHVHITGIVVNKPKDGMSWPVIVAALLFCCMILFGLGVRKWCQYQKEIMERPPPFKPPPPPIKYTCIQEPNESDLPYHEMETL
The experiment in a line: flow cytometry on CD96-expressing cells.

The target of test [6] is T6, CD226 (Homo sapiens (Human), UniProt Q15762 19-336).
T6 construct: also called CD226 tfxn
T6 sequence: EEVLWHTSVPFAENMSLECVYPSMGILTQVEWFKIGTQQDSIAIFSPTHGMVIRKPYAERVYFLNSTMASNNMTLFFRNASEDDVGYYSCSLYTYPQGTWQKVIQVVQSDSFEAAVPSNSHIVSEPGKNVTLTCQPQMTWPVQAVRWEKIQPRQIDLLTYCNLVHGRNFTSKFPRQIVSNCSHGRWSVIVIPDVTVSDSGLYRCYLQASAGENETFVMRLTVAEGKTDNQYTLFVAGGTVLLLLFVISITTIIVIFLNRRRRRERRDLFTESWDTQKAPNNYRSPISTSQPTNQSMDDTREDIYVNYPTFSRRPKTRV
The experiment in a line: flow cytometry on CD226-transfected Expi293 cells.

In test [7] the target is T6, CD226. The experiment in a line: flow cytometry on CD226-transfected Expi293 cells; reference itself.
Test [8] deals with T5, CD96. The experiment in a line: flow cytometry on CD96-expressing cells; reference itself.
Test [9] concerns the target T4, TIGIT. The experiment in a line: flow cytometry on TIGIT-transfected Expi293 cells; reference itself.
Test [10] deals with T7, TIGIT (UniProt Q495A1 22-244).
T7 construct: whole, on cells
T7 sequence (looked up): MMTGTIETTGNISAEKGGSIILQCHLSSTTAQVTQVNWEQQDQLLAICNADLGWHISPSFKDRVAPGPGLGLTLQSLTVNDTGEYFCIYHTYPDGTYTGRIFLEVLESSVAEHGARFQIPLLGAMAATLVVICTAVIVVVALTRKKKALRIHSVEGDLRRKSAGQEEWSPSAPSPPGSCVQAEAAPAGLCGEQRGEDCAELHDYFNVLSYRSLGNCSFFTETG
The experiment in a line: flow cytometry, MFI ratio to wildtype CD155 ECD-Fc, TIGIT cells.

Test [11] concerns the target T7, TIGIT. Put plainly: flow cytometry on cells expressing TIGIT, Fc fusion at 100 nM.
The target of test [12] is T8, TIGIT (UniProt Q495A1 22-244).
T8 construct: whole, on cells; Expressed on transfected cells
T8 sequence (looked up): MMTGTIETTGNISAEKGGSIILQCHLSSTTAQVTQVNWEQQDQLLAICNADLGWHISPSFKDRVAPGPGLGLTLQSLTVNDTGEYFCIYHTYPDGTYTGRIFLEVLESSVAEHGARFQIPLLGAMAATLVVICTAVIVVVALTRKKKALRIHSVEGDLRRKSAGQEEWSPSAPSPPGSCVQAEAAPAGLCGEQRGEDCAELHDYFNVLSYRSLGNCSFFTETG
Put plainly: flow cytometry, Fc fusion at 25 nM on cells expressing TIGIT.

B1: variant CD112 IgV-Fc S118Y (Fc fusion)
chain: QDVRVQVLPEVRGQLGGTVELPCHLLPPVPGLYISLVTWQRPDAPANHQNVAAFHPKMGPSFPSPKPGSERLSFVSAKQSTGQDTEAELQDATLALHGLTVEDEGNYTCEFATFPKGYVRGMTWLRV
notes: IgV-Fc fusion; not shown: linker and Fc
For B1, the MFI was determined as 2920 MFI in [1] and 2000 MFI in [2].

B2: CD112 Y33H/N47K/Q79R/N106Y/A112V IgV-Fc (Fc fusion, not shown: a dimerising Fc or GST)
chain: QDVRVQVLPEVRGQLGGTVELPCHLLPPVPGLHISLVTWQRPDAPAKHQNVAAFHPKMGPSFPSPKPGSERLSFVSAKRSTGQDTEAELQDATLALHGLTVEDEGYYTCEFVTFPKGSVRGMTWLRV
On to B2, for which the “MFI at 100 nM” value in test [3] turned out to be 1680 MFI.

B3: wild-type CD155 IgV-Fc (Fc fusion, not shown: a dimerising Fc or GST)
chain: WPPPGTGDVVVQAPTQVPGFLGDSVTLPCYLQVPNMEVTHVSQLTWARHGESGSMAVFHQTQGPSYSESKRLEFVAARLGAELRNASLRMFGLRVEDEGNYTCLFVTFPQGSRSVDIWLRVL
For B3, the results for the MFI in test [4], in test [5] and in [6] were 2720 MFI, 3080 MFI and 3720 MFI, respectively. Also, the MFI parental ratio in test [7], in [8] and in test [9] was 1 fold in each case.

B4: CD155 IgV Fc (Fc fusion, not shown: a dimerising Fc or GST)
chain: WPPPGTGDVVVQAPTQVPGFLGDSVTLPCYLQVPNMEVTHVSQLTWARHGESGSMAVFHQTQGPSYSESKRLEFVAARLGAELRNASLRMFGLRVEDEGNYTCLFVTFPQGSRSVDIWLRVL
As for B4, in test [10], the “Fold ↑ to WT ECD” value came to 0.01 fold. In addition, in [11], the “MFI at 100 nM” value is 4690 MFI.

B5: variant CD155 IgV-Fc V9L/V11M/P18S/N35S/S54G/Q62K/L79P/L104M/T107M/V115M (Fc fusion, not shown: a dimerising Fc or GST)
chain: WPPPGTGDLVMQAPTQVSGFLGDSVTLPCYLQVPSMEVTHVSQLTWARHGESGGMAVFHQTKGPSYSESKRLEFVAARPGAELRNASLRMFGLRVEDEGNYTCMFVMFPQGSRSMDIWLRVL
notes: also called V9L/V11M/P18S/N355/S54G/Q62K/L79P/L104M/T107M/V115M
Consider B5, for which the “MFI at 25 nM” value in [12] is 3000 MFI.
